In the supplement of paper PMC10567573:

B1: BTBD1 (parent)
chain: FVLGKGRGAAAAGGPQRIPAHRFV

Variants of: B1
Experiment: protein stability index of a GFP-peptide fusion (GPS, HEK-293T) (PSI 1-6); higher = more stable
Details: c terminus: a fixed tail appended
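Also: lentivirally expressed fusions sorted by FACS into six bins by GFP to DsRed ratio, PSI derived from sequencing read proportions per bin multiplied by bin number.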

Row | Variant | protein stability index
1 | FVLGKGRGAHAAGGPQRIPAHRFV | 1.68
2 | FVLGKGRGAAAAGGPQRIPAHHFV | 1.72
3 | FVLGKGRTAAAAGGPQRIPAHRFV | 2
4 | FVLGKGRFAAAAGGPQRIPAHRFV | 1.5
5 | FVWGKGRGAAAAGGPQRIPAHRFV | 1.14
6 | FVLGKGRGAAAAGGPQRIPCHRFV | 1.73
7 | FVLGKGRGAAAAEGPQRIPAHRFV | 2.31
8 | FVLGKGRGAAAAGGPQRIPAMRFV | 3.14
9 | FVLGKGRGAAAAGGPQRFPAHRFV | 1.93
10 | FVLGKGRGAAAAGMPQRIPAHRFV | 1.88
11 | FVLGKGRGAAAAGGPQRIPAHRTV | 2.2
12 | FVLGKGRGAAAAGGTQRIPAHRFV | 2
13 | FVLKKGRGAAAAGGPQRIPAHRFV | 1.64
14 | FVLGKGRGLAAAGGPQRIPAHRFV | 3.31
15 | FVLGKGRGAAAAGGPQRMPAHRFV | 2.87
16 | FVLGKGRGAAAALGPQRIPAHRFV | 2.14
17 | FVLGKGRGAAAAGGPRRIPAHRFV | 1.9
18 | FVEGKGRGAAAAGGPQRIPAHRFV | 1.56
19 | FVLGKGRGAAAAGGCQRIPAHRFV | 3.79
20 | FVLGKGRGAAAAGGPQRIPAHDFV | 2.35
21 | FVLGKGRGAAAAGGPQRIPAHMFV | 4.76
22 | FVLGKLRGAAAAGGPQRIPAHRFV | 2.69
23 | FVLGKGRGAAAWGGPQRIPAHRFV | 2.86
24 | FVLGKGRGAAAAVGPQRIPAHRFV | 1.36

Row | Variant | protein stability index
25 | FVLGKGDGAAAAGGPQRIPAHRFV | 1.49
26 | FVLGKGRGAAAAGGPQRIPAHRKV | 3.99
27 | FVLGKGRGAAAAMGPQRIPAHRFV | 2.07
28 | PVLGKGRGAAAAGGPQRIPAHRFV | 3.04
29 | FVLGKGRGAAAYGGPQRIPAHRFV | 1.16
30 | FVLGSGRGAAAAGGPQRIPAHRFV | 1.98
31 | FGLGKGRGAAAAGGPQRIPAHRFV | 2.74
32 | FDLGKGRGAAAAGGPQRIPAHRFV | 2.88
33 | FVLGKGRGAAAAGGPQRIPAVRFV | 2.72
34 | FVLGKGRSAAAAGGPQRIPAHRFV | 1.2
35 | FVLGKGRGAAAAGGPQRIPQHRFV | 1.73
36 | FVLEKGRGAAAAGGPQRIPAHRFV | 1.94
37 | DVLGKGRGAAAAGGPQRIPAHRFV | 3.02
38 | FVLGKGRIAAAAGGPQRIPAHRFV | 2.26
39 | FVLGKGYGAAAAGGPQRIPAHRFV | 1.72
40 | FVLGKGRGAAAAGGPQRIPAHLFV | 2.3
41 | FVLGKGRGAAAAYGPQRIPAHRFV | 1.57
42 | FVLGKGRGCAAAGGPQRIPAHRFV | 2.47
43 | FVLGKGRGAADAGGPQRIPAHRFV | 1.14
44 | SVLGKGRGAAAAGGPQRIPAHRFV | 2.92
45 | FVLGKGRGAAAAGGPQRIQAHRFV | 2.17
46 | FVLGKGRGAAAAGGPQRIPAHRFR | 1.8
47 | FVKGKGRGAAAAGGPQRIPAHRFV | 2.2
48 | FVLGKGRYAAAAGGPQRIPAHRFV | 1.44

Row | Variant | protein stability index
49 | FVLGKGRGFAAAGGPQRIPAHRFV | 1.28
50 | FVLGKMRGAAAAGGPQRIPAHRFV | 1.38
51 | FVLGKGRGAAAAKGPQRIPAHRFV | 1.16
52 | FVLGKPRGAAAAGGPQRIPAHRFV | 1.82
53 | FVHGKGRGAAAAGGPQRIPAHRFV | 2.63
54 | FVLGKGRGAAAAGGPQRILAHRFV | 1.5
55 | FVLGKGRGAAAAGGPQRIPAHQFV | 1.84
56 | FVLGKGNGAAAAGGPQRIPAHRFV | 1.32
57 | FVLGKGRGAMAAGGPQRIPAHRFV | 1.34
58 | FVLGKGRKAAAAGGPQRIPAHRFV | 2.02
59 | FVLGKGRGAASAGGPQRIPAHRFV | 2.58
60 | FVLGKGRGAAWAGGPQRIPAHRFV | 2.84
61 | FHLGKGRGAAAAGGPQRIPAHRFV | 2.22
62 | FVLGKGRGAAAAGGPQRIPAHSFV | 1.36
63 | FVLGKGRGAAAAGGPQRIPLHRFV | 1.76
64 | FVLGKGRGAAAAGGPQRIPAHRFG | 1.56
65 | FVLGKGKGAAAAGGPQRIPAHRFV | 1.17
66 | RVLGKGRGAAAAGGPQRIPAHRFV | 3.35
67 | CVLGKGRGAAAAGGPQRIPAHRFV | 2.22
68 | FVLGKGRGAAAAGGPQRWPAHRFV | 1.91
69 | FVLQKGRGAAAAGGPQRIPAHRFV | 1.4
70 | FVGGKGRGAAAAGGPQRIPAHRFV | 1.61
71 | FVLGKGRGAAAAGGPQRIPANRFV | 1.88
72 | FVLGKGRGAAAAGGKQRIPAHRFV | 1.06

Row | Variant | protein stability index
73 | FVLGVGRGAAAAGGPQRIPAHRFV | 1.38
74 | QVLGKGRGAAAAGGPQRIPAHRFV | 3.28
75 | FVLGKGRGAAAAGGPQRIPAHRVV | 1.93
76 | FVLGKGRGAAAAGGPQVIPAHRFV | 2.52
77 | FVLGKARGAAAAGGPQRIPAHRFV | 1.97
78 | FVLGKGRGAAYAGGPQRIPAHRFV | 1.63
79 | FVLGKGRHAAAAGGPQRIPAHRFV | 2.31
80 | FVLGKGRGAAAAGGPQRIPSHRFV | 1.53
81 | FVLGKGRGAAAAGGPQRIPAHRPV | 2.43
82 | FVLGKGRGAVAAGGPQRIPAHRFV | 1.43
83 | FVLGKGRGAIAAGGPQRIPAHRFV | 1.52
84 | FVLGTGRGAAAAGGPQRIPAHRFV | 2.85
85 | FVLMKGRGAAAAGGPQRIPAHRFV | 1.38
86 | FVLHKGRGAAAAGGPQRIPAHRFV | 2
87 | FSLGKGRGAAAAGGPQRIPAHRFV | 3.35
88 | FVLGKGRGKAAAGGPQRIPAHRFV | 1.92
89 | FVLGKGRGAAAAGGPQRIPAQRFV | 1.91
90 | FVTGKGRGAAAAGGPQRIPAHRFV | 2.01
91 | FVLGYGRGAAAAGGPQRIPAHRFV | 2.95
92 | FVLGQGRGAAAAGGPQRIPAHRFV | 1.8
93 | FVDGKGRGAAAAGGPQRIPAHRFV | 2.2
94 | FVLGKGLGAAAAGGPQRIPAHRFV | 3.04
95 | FVLGKGVGAAAAGGPQRIPAHRFV | 2.06
96 | FVLGKGRGAAAAGGPMRIPAHRFV | 2.2

Row | Variant | protein stability index
97 | FVLGKGRGAAAAGGPQLIPAHRFV | 2.01
98 | FVLGKGRGAAAAGGQQRIPAHRFV | 1.5
99 | FVLGKGRGAAAAGNPQRIPAHRFV | 1.93
100 | FVLGKGRGANAAGGPQRIPAHRFV | 1.96
101 | FVLGKGRGAAAAGGPQRIPAHKFV | 1.82
102 | FVLVKGRGAAAAGGPQRIPAHRFV | 2.3
103 | FVLGCGRGAAAAGGPQRIPAHRFV | 1.66
104 | FVMGKGRGAAAAGGPQRIPAHRFV | 1.92
105 | FVLNKGRGAAAAGGPQRIPAHRFV | 2.36
106 | FVLGKGRGAAAAGGPQRIPATRFV | 2.72
107 | FVLYKGRGAAAAGGPQRIPAHRFV | 2.21
108 | YVLGKGRGAAAAGGPQRIPAHRFV | 1.26
109 | FVLGKGRGAAAAGGPQRIPAHREV | 2.04
110 | FVLGKGRGAAAAGGPQRINAHRFV | 2.06
111 | FVLGKGRGAAAAGGPQRIPAPRFV | 1.97
112 | FVLGKGRGAANAGGPQRIPAHRFV | 1.71
113 | FVNGKGRGAAAAGGPQRIPAHRFV | 2.12
114 | FVLTKGRGAAAAGGPQRIPAHRFV | 1.46
115 | FVLGKGRGAAAAGGPQRIHAHRFV | 1.27
116 | FVLGKGRGAAAMGGPQRIPAHRFV | 1.52
117 | FVLGKGEGAAAAGGPQRIPAHRFV | 1.48
118 | FVLGKGRGAAAAGGPQRIPARRFV | 2.32
119 | FVLGKGRGAAAAGGPQRIRAHRFV | 1.81
120 | FVSGKGRGAAAAGGPQRIPAHRFV | 3

Row | Variant | protein stability index
121 | FVLGKGQGAAAAGGPQRIPAHRFV | 1.82
122 | FVLGKGRGAAAAGGPQDIPAHRFV | 2.54
123 | FVLGKGRGAAAASGPQRIPAHRFV | 2.15
124 | FVQGKGRGAAAAGGPQRIPAHRFV | 1.3
125 | FVLGKGRGHAAAGGPQRIPAHRFV | 2.08
126 | FVLGKGRGAWAAGGPQRIPAHRFV | 1.98
127 | FVLGKGRGAAAAGGPQRIAAHRFV | 1.34
128 | FVLGKGRGAAAAGCPQRIPAHRFV | 2.08
129 | FVYGKGRGAAAAGGPQRIPAHRFV | 1.79
130 | FVLGKGRGAAAAGGPQRIDAHRFV | 1.53
131 | FVLGKGRGAAAAGGPQQIPAHRFV | 1.92
132 | FVLGKGRGARAAGGPQRIPAHRFV | 1.91
133 | FVLGKGRGAAACGGPQRIPAHRFV | 2.54
134 | FVLGKGRGAAAAGGPQRIPAHRMV | 2.58
135 | FTLGKGRGAAAAGGPQRIPAHRFV | 2.35
136 | FVLGLGRGAAAAGGPQRIPAHRFV | 1.59
137 | FVLGKGIGAAAAGGPQRIPAHRFV | 2.15
138 | FVLGKGWGAAAAGGPQRIPAHRFV | 3.44
139 | FVLGKGRGDAAAGGPQRIPAHRFV | 2.35
140 | FVLGKGRGAAAAGGPQKIPAHRFV | 2.01
141 | KVLGKGRGAAAAGGPQRIPAHRFV | 2.99
142 | AVLGKGRGAAAAGGPQRIPAHRFV | 2.66
143 | FVLDKGRGAAAAGGPQRIPAHRFV | 1.53
144 | VVLGKGRGAAAAGGPQRIPAHRFV | 2.21

Row | Variant | protein stability index
145 | FVLGKGRGAAAAGGPQRIPRHRFV | 1.35
146 | FVLGKGRGAAAAGGPQRIPAARFV | 2.14
147 | FVLGKGRGAAAAGGPQRIPAHRFM | 3
148 | FVLGMGRGAAAAGGPQRIPAHRFV | 2.82
149 | FVLGKNRGAAAAGGPQRIPAHRFV | 2.1
150 | FVFGKGRGAAAAGGPQRIPAHRFV | 1.61
151 | MVLGKGRGAAAAGGPQRIPAHRFV | 2.29
152 | FVLGFGRGAAAAGGPQRIPAHRFV | 1.95
153 | FVLGKGRGAAAAGGPQNIPAHRFV | 1.64
154 | FVLGKGRGEAAAGGPQRIPAHRFV | 2.72
155 | FELGKGRGAAAAGGPQRIPAHRFV | 3.38
156 | FVLGKGRGAAAAGGPQRIPAHRHV | 1.45
157 | FVLGKGRGAYAAGGPQRIPAHRFV | 1.79
158 | FVLGIGRGAAAAGGPQRIPAHRFV | 1.75
159 | FVLGKGPGAAAAGGPQRIPAHRFV | 1.98
160 | FVLGKGRGAAAAGGPQRIPAHRFT | 2.84
161 | FVLGKGRGAAAAGGPQRYPAHRFV | 1.74
162 | FVLGKGRGSAAAGGPQRIPAHRFV | 1.57
163 | FVLGKGRGAAAAGGPIRIPAHRFV | 2.2
164 | FVLGKGRRAAAAGGPQRIPAHRFV | 1.78
165 | FVLGKGRGAAAAGKPQRIPAHRFV | 2.83
166 | FVLGKGRGAAAAIGPQRIPAHRFV | 2.25
167 | FVLGKGRGAAAAGGPQRCPAHRFV | 2.27
168 | FVLGKGCGAAAAGGPQRIPAHRFV | 3.48

Row | Variant | protein stability index
169 | FVLGKGRGAEAAGGPQRIPAHRFV | 1.67
170 | FVLGKGRGAAAAGGPQRIPAFRFV | 4.04
171 | FVLLKGRGAAAAGGPQRIPAHRFV | 2.39
172 | FVLGKGRGAAAARGPQRIPAHRFV | 1.41
173 | FVLGKGRGAAPAGGPQRIPAHRFV | 1.5
174 | FVLIKGRGAAAAGGPQRIPAHRFV | 1.98
175 | FVLGKGRGAAAAGGPQRIPEHRFV | 2.49
176 | FVLGKGRGAAAAGDPQRIPAHRFV | 2.64
177 | FVLGKGRGAAAAGGHQRIPAHRFV | 1.85
178 | FVLPKGRGAAAAGGPQRIPAHRFV | 2.59
179 | FVLGKGRGAAAAGGPQRNPAHRFV | 2.12
180 | FVLGKGSGAAAAGGPQRIPAHRFV | 2.24
181 | FVLGKGRGAAAAGGVQRIPAHRFV | 1.43
182 | FVLGKGRGAAAAGGPQRIPNHRFV | 1.49
183 | FVLGKGRGAAAAGGPQRIPAGRFV | 1.77
184 | FVLGKGRGAAIAGGPQRIPAHRFV | 1.87
185 | FVLGKSRGAAAAGGPQRIPAHRFV | 1.44
186 | FVLGKGRGAAAAGYPQRIPAHRFV | 1.07
187 | FVLGKGRGAAAAGGPQRIPAHRFQ | 1.7
188 | FVLGKGRGAFAAGGPQRIPAHRFV | 2.27
